Reference: US20090042209A1 (NOX TECHNOLOGIES, published 2009)

Target: T1, albumin (serum) (human, UniProt P02768 25-609)
T1 construct: Present in the serum sample on the 2-D blot; also called unreactive albumin
Experiment: 2-D gel electrophoresis immunoblot of pooled cancer sera, scFv with anti-S alkaline phosphatase detection
Source text: FIG. 1 provides the results of analytical 2-D gel electrophoresis of ECTO-NOX enriched serum proteins from a preparation of sera pooled from cancer patients (breast, ovarian, lung and colon) concentrated by nickel agarose precipitation, followed by immunoblots analysis. Separation in the first dimension was by isoelectric focusing and in the second dimension by SDS-PAGE (using ampholytes over the pH range of 3 to 10 and 10% polyacrylamide gel). For interpretative purposes, the gel is divided into quadrants I-IV with unreactive albumin (albumin) at the center. Detection was with recombinant anti-tNOX single chain variable region (scFv) antibody (MAB 12.1 scFv) carrying an S-tag followed by alkaline phosphatase-liked anti S (Novagen cat. # 69598-3 or equivalent product) with Western Blue NBT substrate (Promega, Madison, Wis; Cat. No. S3841 or equivalent product). Reactive proteins appear reddish blue.

T1 sequence (P02768 25-609 limits assumed): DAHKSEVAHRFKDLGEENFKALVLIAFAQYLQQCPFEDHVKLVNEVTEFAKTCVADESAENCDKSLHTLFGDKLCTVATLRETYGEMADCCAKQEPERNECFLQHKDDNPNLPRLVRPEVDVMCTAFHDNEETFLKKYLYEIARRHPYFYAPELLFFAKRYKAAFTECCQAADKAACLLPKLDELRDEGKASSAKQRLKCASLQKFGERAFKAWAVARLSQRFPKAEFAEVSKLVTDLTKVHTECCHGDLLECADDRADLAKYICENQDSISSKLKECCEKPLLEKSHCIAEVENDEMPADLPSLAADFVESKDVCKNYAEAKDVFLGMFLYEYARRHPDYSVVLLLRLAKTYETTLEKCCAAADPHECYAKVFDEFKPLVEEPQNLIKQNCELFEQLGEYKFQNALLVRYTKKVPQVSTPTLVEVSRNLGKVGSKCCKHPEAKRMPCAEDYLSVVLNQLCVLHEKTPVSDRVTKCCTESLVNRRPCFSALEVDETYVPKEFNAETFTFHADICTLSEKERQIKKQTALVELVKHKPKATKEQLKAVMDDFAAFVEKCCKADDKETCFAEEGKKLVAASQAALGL

B1: recombinant anti-tNOX single chain variable region (scFv) antibody (MAB 12.1 scFv) carrying an S-tag (scFv)
scFv: EVKLQESGTEVVKPGASVKLSCKASGYIFTSYDIDWVRQTPEQGLEWIGWIFPGEGSTEYNEKFKGRATLSVDKSSSTAYMELTRLTSEDSAVYFCARGDYYRRYFDLWGQGTTVTVSSGGGGSGGGGSGGGGSENVLTQSPAIMSASPGERVTMTCSASSSIRYIYWYQQKPGSSPRLLIYDTSNVAPGVPFRFSGSGSGTSYSLTINRMEAEDAATYYCQEWSGYPYTFGGGTKLELKAKETAAAKFERQHMDS
notes: Expressed in E. coli from pET11-ScFv(S) and renatured from inclusion bodies; also called ScFv(S); NTI ScFv MAB 12.1
  binding result: no binding
